These results are taken from the RNAGym collection of RNA variant scans (doi:10.1073/pnas.2313332121).

Fewer inactive variants are shown than the library holds.

B1: TPR 5TU (parent)
chain: GGAUCUUCUCGAUCUAACAAAAAAGACAAAUCUGCCACAAAGCUUGAGAGCAUCUUCGGAUGCAGAGGCGGCAGCCUUCGGUGGCGCGAUAGCGCCAACGUUCUCAACUAUGACACGCAAAACGCGUGCUCCGUUGAAUGGAGUUUAUCAUG

This data set covers variants of B1. The experiment in a line: polymerase ribozyme fitness, log enrichment relative to wild type (log ratio); higher = more active; in vitro selection for triplet polymerase activity. The gist of the method: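 Mutant libraries of each subunit of a heterodimeric triplet polymerase ribozyme were built by PCR and transcribed. Each library went through one round of in vitro selection in triplicate: annealing with biotinylated primer, partner subunit and triplets, frozen incubation at −7 °C, gel excision of extended constructs, streptavidin-bead capture and RT-PCR. Input and output libraries were Illumina-sequenced; only genotypes with ≥10 input reads and ≥1 read per output were kept. Fitness is log2(genotype enrichment/wild-type enrichment), using inverse-variance-weighted replicate averages.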
With G58C G92U A122G, the “polymerase ribozyme fitness (log ratio)” value was -1.45.

On to G59A G86U A97U C108G C116G G143C, for which the “polymerase ribozyme fitness (log ratio)” value is no more than -4.2. Consider U56A U78G G112C U139C, for which the “polymerase ribozyme fitness (log ratio)” value was no more than -4.2. In the case of G59A G71U G84U G92A A115G C118G U144C C149G, the “polymerase ribozyme fitness (log ratio)” value is no more than -4.2. The value for G59C G86C was -3.39; that for C57U G59A A73G C79U was no more than -4.2. The same measure for U56A U139C: -3.15. The same measure for G58C G67U A91U A107G C108U C116G C125U C129U: no more than -4.2.

In the case of G59C C76A C85G C118U, the “polymerase ribozyme fitness (log ratio)” value is -2.89. With G58U G81C C93G, the “polymerase ribozyme fitness (log ratio)” value is -3.21.

On to G59C A97U A106G C118G G124A U145G, for which the “polymerase ribozyme fitness (log ratio)” value is -2.18.

Regarding G58C G126U, the “polymerase ribozyme fitness (log ratio)” value is -0.916.

For C57U A64G, the “polymerase ribozyme fitness (log ratio)” value was -3.91. As to C57U G58A A60U C69U C76A G88U G141A, the “polymerase ribozyme fitness (log ratio)” value is no more than -4.2. Regarding U56A U61G G88C G136U, the “polymerase ribozyme fitness (log ratio)” value is no more than -4.2. The value for U56G U144A was -0.473; that for C57U G86U C96A U109A U146A was -2.45.

For the variant G59A G133U G140C, the “polymerase ribozyme fitness (log ratio)” value is -3.69. On to C57U G68A, for which the “polymerase ribozyme fitness (log ratio)” value is -3.56.

Regarding G58A G81A G86A C93U G112C C116U C149G, the “polymerase ribozyme fitness (log ratio)” value was determined as 1.13. Regarding U56G A119C U146G, the “polymerase ribozyme fitness (log ratio)” value is -1.1. As to G59A U82G G117U, the “polymerase ribozyme fitness (log ratio)” value was 0.479.

As to C57U C149U, the “polymerase ribozyme fitness (log ratio)” value was -1.28. C57U U145A: the “polymerase ribozyme fitness (log ratio)” value amounted to 0.046. Regarding C57U U145G, the “polymerase ribozyme fitness (log ratio)” value was -0.309.

Consider U56A U127G, for which the “polymerase ribozyme fitness (log ratio)” value was -2.83. The value for C57U A89U U101A C125U G141A U146A was no more than -4.2; that for C57U A115G U144C was no more than -4.2; that for G59A C85A C95U C103U U134A was -3.2. The value for C57U C76U C129G was -3.51. Regarding C57A A97U G124A G140U, the “polymerase ribozyme fitness (log ratio)” value is -4.13. The value for G58C G65C A66C U77G U102A C132U was no more than -4.2. The same measure for G58A G59U C87U G136A: 0.169; for G59C U82G G143C: -2.29; for G59C C95U A106G C116A: 0.288. For C57U G59A G67A C93G, the “polymerase ribozyme fitness (log ratio)” value was no more than -4.2. G58U G84U A113G U139G: the “polymerase ribozyme fitness (log ratio)” value was -2.95. Regarding C57U U61G C76A, the “polymerase ribozyme fitness (log ratio)” value is no more than -4.2. The value for C57G U82A C95G U134C was -1.35. The value for G59A C93A G141C was -4.03; that for C57A C85A A147G was -1.09. As to G58C C118U U135C U145A, the “polymerase ribozyme fitness (log ratio)” value was -1.79. The same measure for C57A G59C: 0.0811; for U56G G62U C85A A119C C131U: -1.78; for C57A A113G: -1.32. Regarding G58U G68A U148G, the “polymerase ribozyme fitness (log ratio)” value is no more than -4.2. For G59A G65C G68A U77C G133U, the “polymerase ribozyme fitness (log ratio)” value was no more than -4.2. The same measure for C57A A60C C96U C132A: -3.83; for C57A G83A: -0.934. The value for G58A G84C was -1.94; that for C57U C63A was 0.923; that for U56G C85G A119G G141C was -2.08.

Turning to G59A U82A C95G G136A, the “polymerase ribozyme fitness (log ratio)” value is -1.25. Regarding C57U G59A C75G A138G, the “polymerase ribozyme fitness (log ratio)” value is -4.02. The same measure for G59A C132A: -2.31; for G58C G71C G92U C96U U145A: no more than -4.2; for C57U U78A G84A C95U U135G: no more than -4.2. The value for C57U A60U C95A C105U C125A was -2.41; that for U56C C103G C129U was -4.1. The same measure for G58U U61A U135A: -1.67. G58A A98G: the “polymerase ribozyme fitness (log ratio)” value is 0.621.

G59A A138C U146C A150G: the “polymerase ribozyme fitness (log ratio)” value was no more than -4.2. Turning to C57A A107U, the “polymerase ribozyme fitness (log ratio)” value was -3.62. The value for C57U G84U was -2.27. On to U56G A89C C96A C116G A119C, for which the “polymerase ribozyme fitness (log ratio)” value was -3.23. Consider G58C A142U U146A, for which the “polymerase ribozyme fitness (log ratio)” value was -1.03. In the case of U56A G88C U145G, the “polymerase ribozyme fitness (log ratio)” value was -4.05.

With G59C G83A C125A, the “polymerase ribozyme fitness (log ratio)” value is -1.12.

For the variant G59C U102G, the “polymerase ribozyme fitness (log ratio)” value is -2.05.

For the variant G58A G83A, the “polymerase ribozyme fitness (log ratio)” value is -0.976. Consider C57U G58A G83A G86A C118U C123A, for which the “polymerase ribozyme fitness (log ratio)” value is -1.76. The same measure for C57U G86U A97C: -1.82; for G58A U61A: -0.894. As to C57G U82C C95U C125A C131U U135C U146C, the “polymerase ribozyme fitness (log ratio)” value was -3.38. In the case of C57U A73G G143U U145G, the “polymerase ribozyme fitness (log ratio)” value is no more than -4.2. The value for U56G C96A was -1.15. The value for G59A C85G G100A U134G U144G A150C was no more than -4.2; that for G59A C96G was -1.1; that for U56C C69A U135A was -3.01. The value for G59C C95U G136U was -2.05; that for C57G A91U A147U was no more than -4.2.

As for G58A A60C G74A C85G C116G C123U C149G, the “polymerase ribozyme fitness (log ratio)” value is no more than -4.2.

For the variant G58A U146C, the “polymerase ribozyme fitness (log ratio)” value was 0.448. Take C57U G141A: the “polymerase ribozyme fitness (log ratio)” value was 0.719.
